Experimental data: IntAct's records for PubMed 26418745

B1: ALK tyrosine kinase receptor (Homo sapiens), Q9UM73 (parent)
chain: MGAIGLLWLLPLLLSTAAVGSGMGTGQRAGSPAAGPPLQPREPLSYSRLQRKSLAVDFVVPSLFRVYARDLLLPPSSSELKAGRPEARGSLALDCAPLLRLLGPAPGVSWTAGSPAPAEARTLSRVLKGGSVRKLRRAKQLVLELGEEAILEGCVGPPGEAAVGLLQFNLSELFSWWIRQGEGRLRIRLMPEKKASEVGREGRLSAAIRASQPRLLFQIFGTGHSSLESPTNMPSPSPDYFTWNLTWIMKDSFPFLSHRSRYGLECSFDFPCELEYSPPLHDLRNQSWSWRRIPSEEASQMDLLDGPGAERSKEMPRGSFLLLNTSADSKHTILSPWMRSSSEHCTLAVSVHRHLQPSGRYIAQLLPHNEAAREILLMPTPGKHGWTVLQGRIGRPDNPFRVALEYISSGNRSLSAVDFFALKNCSEGTSPGSKMALQSSFTCWNGTVLQLGQACDFHQDCAQGEDESQMCRKLPVGFYCNFEDGFCGWTQGTLSPHTPQWQVRTLKDARFQDHQDHALLLSTTDVPASESATVTSATFPAPIKSSPCELRMSWLIRGVLRGNVSLVLVENKTGKEQGRMVWHVAAYEGLSLWQWMVLPLLDVSDRFWLQMVAWWGQGSRAIVAFDNISISLDCYLTISGEDKILQNTAPKSRNLFERNPNKELKPGENSPRQTPIFDPTVHWLFTTCGASGPHGPTQAQCNNAYQNSNLSVEVGSEGPLKGIQIWKVPATDTYSISGYGAAGGKGGKNTMMRSHGVSVLGIFNLEKDDMLYILVGQQGEDACPSTNQLIQKVCIGENNVIEEEIRVNRSVHEWAGGGGGGGGATYVFKMKDGVPVPLIIAAGGGGRAYGAKTDTFHPERLENNSSVLGLNGNSGAAGGGGGWNDNTSLLWAGKSLQEGATGGHSCPQAMKKWGWETRGGFGGGGGGCSSGGGGGGYIGGNAASNNDPEMDGEDGVSFISPLGILYTPALKVMEGHGEVNIKHYLNCSHCEVDECHMDPESHKVICFCDHGTVLAEDGVSCIVSPTPEPHLPLSLILSVVTSALVAALVLAFSGIMIVYRRKHQELQAMQMELQSPEYKLSKLRTSTIMTDYNPNYCFAGKTSSISDLKEVPRKNITLIRGLGHGAFGEVYEGQVSGMPNDPSPLQVAVKTLPEVCSEQDELDFLMEALIISKFNHQNIVRCIGVSLQSLPRFILLELMAGGDLKSFLRETRPRPSQPSSLAMLDLLHVARDIACGCQYLEENHFIHRDIAARNCLLTCPGPGRVAKIGDFGMARDIYRASYYRKGGCAMLPVKWMPPEAFMEGIFTSKTDTWSFGVLLWEIFSLGYMPYPSKSNQEVLEFVTSGGRMDPPKNCPGPVYRIMTQCWQHQPEDRPNFAIILERIEYCTQDPDVINTALPIEYGPLVEEEEKVPVRPKDPEGVPPLLVSQQAKREEERSPAAPPPLPTTSSGKAAKKPTAAEISVRVPRGPAVEGGHVNMAFSQSNPPSELHKVHGSRNKPTSLWNPTYGSWFTEKPTKKNNPIAKKEPHDRGNLGLEGSCTVPPNVATGRLPGASLLLEPSSLTANMKEVPLFRLRHFPCGNVNYGYQQQGLPLEAATAPGAGHYEDTILKSKNSMNQPGP
partner: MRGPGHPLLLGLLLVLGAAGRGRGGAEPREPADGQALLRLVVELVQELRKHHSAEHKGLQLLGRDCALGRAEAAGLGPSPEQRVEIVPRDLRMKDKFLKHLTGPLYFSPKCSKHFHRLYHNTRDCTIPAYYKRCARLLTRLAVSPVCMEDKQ

Variants of: B1
Details: with alkl2_human ALKAL2, Q6UX46

Effect of a mutation on the interaction, disrupting interaction strength:
G740D
G934D
G893E
G823D
